The values that follow come from publication doi:10.1101/2025.06.12.659319, “A bipartite, mutation-tolerant NLS regulates interaction of ΔNp63α with importin alpha, nuclear transport and transcriptional activity” (bioRxiv, 2025).

Where no end group is shown, it is not given here. The star is where a group is joined. FITC = O=C1OC2(c3ccc(O)cc3Oc3cc(O)ccc32)c2ccc(NC(=S)*)cc21

For the assay, the target named is mouse IMPα2ΔIBB (importin α2 lacking the IMPβ1 binding domain) (mouse, UniProt P52293 70-529). Briefly: crystal structure; IMPα2ΔIBB crystals (hanging drop, 650 mM sodium citrate, 100 mM HEPES pH 6.5, 10 mM DTT, 23°C) soaked with the peptide; 2.20 Å. The settings on record: both partners purified.

B1: FITC-ΔNp63α NLSbip peptide (residues 278-302) (peptide)
peptide: {FITC}-DGTKRPFRQNTHGIQMTSIKKRRSP
notes: ΔNp63α (p63), human, residues 278-302, bipartite NLS; numbers count on: the ΔNp63α isoform (Q9H3D4-2); also called p63 NLS; source: synthetic peptide (GenScript)
On to B1, for which the binding result is “binds”.
